Results reported in the DeepSol protein solubility set.

Experiment: soluble on expression in E. coli; label from the status in PepcDB or PDB records

Sequence	soluble on expression in E. coli
MTIVIGFEGSANKIGIGIIKDGEVLSNPRRTYITPPGQGFLPGETAKHHRSVILTVLQEALDEAGLKAADIDCVAYTKGPGMGAPLVTVAIVARTVAQLWGKPLLGVNHCIGHIEMGRLITNAQNPTVLYVSGGNTQVIAYSERRYRIFGETIDIAVGNCLDRFARVIKISNDPSPGYNIEQMAKKGNKYIELPYTVKGMDVSFSGILSYIEDAAHKMLSTDQCTPEDLCFSLQETVFAMLVEITERAMAHCGSQEVLIVGGVGCNLRLQEMMGVMCKERGARLFATDESFCIDNGAMIAQAGWEMFRSGHVTELPDSWITQRYRTDEVEVTWRD	soluble
MYRNLLNWLTILLVFPSCSGTSPTISVVCEENNVGNAIIKWETAPILKGQVKVYASTSPDFIPEENPVVTINIAKGKKTIVTNDPSQRYYYLMVFNNRYRVRVAARNVNIPGIQNFRDLGGYKSAETGKDTRWGMLYRSAQIDSIPFCSRRELKNMGIRTIIDLRSEEERHNYPQLHDEDFNVLHLPIATGNMEHILQDIRDKKIETDTIYRLVERMNRQLVTNYRKEYKELFTLLLDRNNYPVVIHCTSGKGRTGIVSALVLAALGVNEEAIMKDYRLSNDYFNIPKASRYAYKLPINSQEAITTIYSAKEDFLNAAKEQIDAEYGSVQAYLKKGIGLSAEEIERLRSILLIDNGLEHHHHHH	not soluble
MMSAVERRMEIVNVVNQDGKARVEDLAARFDVSSVTIRSDLSFLEKNGYVVRSHGAAIPNTGVIAELTVHEKRHQNIGTKSSIGYAAAQLIENGDTVILDSGTTTREIASNLKSLEQAVVMTNGLDVAMELASASGIEVLMSGGVLRKKALSFSGSQAEASLKNYRFDKVFLGVDGFDLRSGITTHNEQEASLNRLMCDISEQVIAVADSTKFGKRSCHMIREFGNIDILVTDSDIPEEYLQGLREMKVEVIIVEKEK	not soluble
MSLANIQEIAKLAGVSSATVSRVINNRDYVSEETRKRVQTIIDKLDYVPNINAVSLKKGATKLIGMVIPSFTDSLNVFLKSFTMMAQEHGYNVTLFMTRIDPDKELEALEMLRQKQIDALVLVIRSNDWKTIEHYTKYGPIVTWQRVESEKIPSVFMNQYDGYTLALEHLYAKGYRKFVNVYGNTTGLNTQSRMLAFKDFCARYELDPHEFRQFYGQGSRQDGEKIAHWWSETEHKPDAFLTPNDYFAAGLLTEARRLGYSVPEDFAICGFDNMEVAHLLDITTIHYPVNLQAENAFTLIMNQLFGSNLPLLDLDFHLVERKTTEGHHHHHH	soluble
MGSDKIHHHHHHMKKEADMIHPIANAPCSWGVDDPKNPNLPAWATVLKEAAQAGYRSIELGPWGYLPSDPASLRAALEQHQLSLVAGTIFDDLVSEAHFPTLVALTHQICRNLSQVAAAEPIPGRPFQPPYLVIIDFGNPERARFAGRGALAPRLNDKDWQRMMEHIIALSTLAWQEYGVRAVIHPHAGGSIEFADEIERLANDIPHDVAGLCLDTGHLYYAGMDPLDWLDRYYHRLDYLHFKDVDPQVYQRAIHEGIDFFTACAEGVMCPLGSGAIDYPAIKDFLARRGYQGWITIEQERDPRHAAGSLQAVTESLRYLRDVGF	not soluble
MFNFANFYQLIAQDTRLQPWLNVLPQQLTDWQNAEHGDFGRWLKALNKIPEGSPDQVDIKNSVTISNDTPFHEGELKKLENLLRTFHPWRKGPYTVHGIHIDTEWRSDWKWDRVLPHISPLKNRSVLDVGCGNGYHMWRMLGEGARLCVGIDPSHLFLIQFEAIRKLMGGDQRAHLLPLGIEQLPKLEAFDTVFSMGVLYHRRSPLDHLIQLKDQLVSGGELVLETLVIEGDENAVLVPTSRYAQMRNVYFFPSAKALKVWLELVGFEDVHIVDENVTSVDEQRTTDWMTHNSLPDYLDPNDPSKTVEGYPAPRRAVLVARKP	not soluble
MPDGGLAAPDRAVLPRAMTPPPSTSRTYDAVIVGGGHNGLVAAAYLARAGRSVLVLERLDHTGGAAVSTKPFAGVDARLSRYSYLVSLLPKKIVRDLGLDFRVRARTVSSYTPVERAGRPTGLLVGGGERRTRESFARLTGSQREYDAWQRFYAMTGHVAQRVFPTLTEPLPTRDELRRRVDDETAWRALFEEPVGVAIEEHFDDDLVRGVALTDALIGTFADAHDPSLAQNRCFLYHVIGGGTGAWDVPVGGMGALTDALAGAARAAGAVLATGHEAVRIEADGHGAEVTFRSADGEGVAAARHVLVNASPRELAALTGDAPPAPAEGAQLKVNMLLTRLPRLRDPDADPREAFAGTFHIAEGYEQLAAAHARAAAGELPAAPPSEIYCHSLTDPTILGPGPAAKGMHTLTLFGLHTPARLFARDNDAVRAELLKSTLAQLDAHLAEPLADCLATDADGRPCIEARSPLDLERDLGLPGGNIFHRELSWPHAQEGTGHWGVETGRARVLLCGAGAVRGGGVSGVPGHNAAMAVLDGTTGLEHHHHHH	not soluble
MSLTILELTFATNQLTTTFFNHKLEPLHQKTFPFEALTIEETVPELCQLILAEAAPILGGIVADFPADFFSPEETLALVPQAVIQAFAEQLNTPLLTAAEQAAAPNLLEAFEEKRQYLAWHLDYYGYVPGKNEYAVESLLTVGNGFLGLRGTTPEMTISDDHYPATYIAGLYNTAASEVAGQVVENEDFVNAPDNQHIALKIGDATDWLTISPDTLQQLHRQLNLKTGLFVAEMILKDADNQQIKLTTKKIANMAQPNDYHLQYTFEPLNFSAPITLKTVTDGSVYNYNVARYRNLTAKHFQVTALSAQENKTVIEVCTNQSNLSVRETSLITGDFFEKEAITIQEEAEKIAQVVTVMAHQGTRYTLEKQVFVQASHAEQSWQVPFTPKDSFAAAAQESARAWQTLWQQANITVTGDLMSQKLLRIHSYHLLASASPFSNQAQALDVSITARGLHGEAYRGHIFWDEIFILPFYIQHYPDTAKQLLLYRYHRLEKAKENAAASQYRGAMYPWQSGRDGRETTQKLHLNPLNGHWGEDHSILQRHVSLAIAYNAWLYWHSTQDHEFMKQYGGEMLLEIAQFWNSAATLDDATGRFFIDKVMGPDEFHEGYPDQAESGLKNNAYTNLMVVWLFEELTNILALFSEEEQAQLFAKTQTTSADLARMQQIQNSLEIEVNSDGIIAQYEGYFGLKEIDWTAMKEKYGNIYRMDRILKAEGESPDDYKVAKQADTLMLFYNLDKTRVDQILEDLGYQLPADYLEKNLLYYLKRTSHGSTLSRIVHAQLAEMAQFHELSWQLYQEALYSDYRDIQGGTTAEGIHTGVMAATIHVTLATYAGVDTRQNELSICPNLPEHWQALAFQFIHQGVTYQFSLTQTSVTITADRDTQLLVQGALIPLTAERPKEVHYQEGHHHHHH	soluble
GMDVLQKEIDEVYATHPTAHEALDNGIVEQHQQFVRSLTEVNGGCAVISDLSNRKSYVTVHPWANFLGLTPEEAALSVIDSMDEDCIYRRIHPEDLVEKRLMEYKFFQKTFSMSPGERLKYRGRCRLRMMNEKGVYQYIDNLVQIMQNTPAGNVWLIFCLYSLSADQRPEQGIYATITQMERGEVETLSLSEEHRNILSEREKEILRCIRKGLSSKEIAATLYISVNTVNRHRQNILEKLSVGNSIEACRAAELMKLL	soluble
MKKTTLMSAVVATLSLVGCQSTTGSSDAQPEQTSHISQAVYEVEFHAAQSFLSQASQLEQSFADFCLAPKNDVEPVQQQWHSTMLAWMALQGQERGPATALEQSWNVQFWPDKKNTTGRKMSALTKADKVWTVEEISTQSVTVQGLGALEWLLYDDASTLNTNSNVCASGVAIAENLHDKAQIIANSWAENPWKSLQKTEWESEYISLLSNQLEYSMKKLSRPLAKIGHPRPYFSESWRSETSLSNLKANLESLHQLYFANGKGLDALLRAQGKTQLADRVAYQFDMALETWPEDKSLFSALQSVDGYRLVLAQYNKLEQLKYLIHEEVAIELGVVIGFNATDGD	not soluble
MDISMKQSKRNLWWSVCAGLLFCSWGCSSQVSDKPVTLETLLDEMVSVEEQALYPVPSYTCRQESSYDRASVSPDSAGWFANSDGFGIKRVDTVAGRIEKVMFDEVGPGAITRIWITTIDKRGTWRFYFDGSDQPGWIIPAYDLMRINVPGLGKGMLQAHTSYTPEGKGGNTLFLPIPYARGCKVTFEDEPGVNPTPKYYHINFRKYPEGTQVETFSKEVVERAAQKIAEVDNRLLQPVAGRKGEILREEKSILPSDSLVIPLPAGENAVYEVKFNIRIDNPEQYAQLMRELVFSAGFDGKQTVWVPLSDFSGGGMGAPKVDSWYLTSDGKGNISSRWLMPYQKDGVLKVLNLSSRSVAATMEVNVAPLKWNKDRSLYFYASWRQENGIYIHDKPEEADQCVEWNFATLKGRGVYKGDLLSLYNHAPLWYGEGDEKIWVDDDTFPSHFGTGTEDYYNSSWAPVVPFYTPFGGAPRADLESSHGYNAFYRTRHLDGIPFNKSFKFDIEMLGWKRGEADYATTIYWYGDPEAQVFGTSGIEEARRQLLPAVEASADLEHHHHHH	soluble
MGSDKIHHHHHHMWTEIDTQISRVTGERFQSQQRRSVSGGCINQGYAVADGTLTYFVKLNQASQVAMFEAEALGLEQMLTTNSIRVPKPICWGIAGNSGYIVLEWLEMGSGNTNSWEEMGRNLAKMHKATSQKGYGWDMNNTIGSTPQINTWTEDWTEFYSKHRLGYQFQLARRRGGSFPKQDELLGALPELLADHEVQPSLVHGDLWGGNAGCTVSGEPVIFDPATYFGDREVDIAMTELFGGFPAAFYKGYNQVFPLDAGYEKRKTLYNLYHILNHFNLFGGGYASQANRMIEQILR	not soluble
MSIPLLEYKPSSQNQRVPGYEVPNEDTPRIYRIEDAAYDSELKELIWATYRQVFSEHVILKFFRQGNLESQLKNRAISVRDFVRGLAKSEAFKTLVIKSNSNYRLVELALKRLLGRAPYNKDEEIAWSIKIATNGWDGFVDALLDSEEYQSNFGENIVPYQRRRYKDRPFNLVTPRYGNYWRDKLESERYIEGDIKNFLELAKSIEIKTVTFTPVSTANIKIPDTTRNTTPTGIPISVNPSANFPVRLEHHHHHH	not soluble
MAAETTSEDVKLAASFKDASKLGIDQKSGIPRKVKGTLTWRLELKRTNDGFWISAFFKGASKKKISIKAEFTLLCAGQEPLNKTEKKDSDCTKKSTEYEVCAMFTECETENHFEKGSDLRFEVELTIVMENSSKKSSVKPKPEAKQEPTKENDKIVGSESMMLDQLTSKLFLKASEGARIISNEIINDLLDIANRFDVPEVKTKCEQFLLEDLKKALKEKMETAEKYELDCLQAVKSADDALANSLEKLAIK	not soluble
MGHHHHHHSHMKTTLKMTALAALSAFVLAGCGSHQMKSEGHANMQLQQQAVLGLNWMQDSGEYKALAYQAYNAAKVAFDHAKVAKGKKKAVVADLDETMLDNSPYAGWQVQNNKPFDGKDWTRWVDARQSRAVPGAVEFNNYVNSHNGKVFYVTNRKDSTEKSGTIDDMKRLGFNGVEESAFYLKKDKSAKAARFAEIEKQGYEIVLYVGDNLDDFGNTVYGKLNADRRAFVDQNQGKFGKTFIMLPNANYGGWEGGLAEGYFKKDTQGQIKARLDAVQAWDGK	not soluble
MPPKKAPAKKLHELAAEVRVGHKINDISKKTFIVGKQFATGGFGRIHTCTEEGKSQQMVMKIEPSTNGPLLTEVVVFNRILKKELIESYKKKKKISWIGLPYLIANGYFTYESEKMRYMIIPKYATSLEAVRETNGGTLAMKDSLTVASCILDALEYLHESDYAHADVKAANILLEKQGVYSTAVLVDFGLAHRTTNNVDKPDKKRAHNGTCIFTSTDAHRGNNPSFRGDIEILAYNLMMWATGTLPWMALESSPEKVFDAKQKFIAGLPGTLQNVLKNESSAVVGCIASMFDISMKTNYTDKVDMGKLKKLVTDAIQKTSSDGKKTPTRQKKLAEEDKNAVTPKRSTRRLAVKEESDNKDNDEVEVKPEKKATPRKRTTRKAVEVNNDSDDNEEQYENPKSKSSRTQTKSKRAKEEDVDDEEEIIIPKSSRSRSKVQLSGEGSDVTTPSSAASTSRSRSIRLGLTSSTASSNKVAKKIEQKYKRLSMNKSSLVPVTISVASDKSPTTSTPSSSSGLRSKRKSSEDVGEGITLKTQVLITPAIKKAKTKSGISSATKASPTELRRVPGVRNFPKGRRSMIIKETSAKYKERLASRQTKPTFDDSSCSSEV	not soluble
